According to US11523990B2, “Non-covalent, self-organzing hydrogel matrix for biotechnological applications” (DENOVOMATRIX GMBH, priority 2012, dated 2022):
Entries after “also recorded” stand apart in the source; their conditions may differ.

What was measured:
Format in all cases: physicochemical
[1] = Stability of formed hydrogels against different solvents; settings: 24° C., at least three days
Procedure: In order to test the strength of the interaction between the peptide motif and the 14-kDa-heparin the formed hydrogels were tested with regard to different solvents. […] For this the peptide-starPEG-conjugates were mixed with 14 kDa-heparin in 50 μl in physiological phosphate buffer solution (1×PBS) to a final concentration of respectively 5 mM. Each solvent, i.e., physiological phosphate buffer solution (1×PBS), Milli-0-water, 1 M hydrochloric acid (HCl) 1 M sodium hydroxide solution (NaOH), saturated sodium chloride solution (NaCl), dimethyl sulfoxide (DMSO), ethanol and cell culture medium with 2% fetal bovine serum (FBS) were respectively added as 200 μl supernatant to the hydrogel. The hydrogel was incubated at a room temperature of 24° C. and the supernatants where exchanged every day for at least three days. All experiments were performed three times. Under none of the tested conditions the KA7-hydrogel could be destroyed. […] 2,2,2-trifuourethanlol (TFE) is known to destroy any type of secondary structures.

[2] = High-throughput centrifuge analysis of mechanical properties of the hydrogels (surface deformation, metal bead penetration); settings: 5 mM peptide-starPEG + 5 mM 14-kDa-heparin
Procedure: ATIII is a heparin-binding peptide known from the literature. All peptides are connected to a four-armed, maleimide functionalized 10-kDa-polyethylene glycol (starPEG). The hydrogel formation was tested in a 50 μI mixture, which contains 5 mM 14-kDa-heparin and 5 mM (2.5 mM) peptide-starPEG conjugate in phosphate buffer solution (1×PBS, pH 7.4). The deformation and penetration speed was analyzed through centrifuging the hydrogel in a 45° table centrifuge with 275 μm metal beads added to the surface. The deformation of the surface and the penetration of the metal beads were monitored in dependence on the applied force.
A comparative high-throughput analysis was performed regarding the mechanical properties of the hydrogels. In order to provide a fast high-throughput method for comparing small amounts of hydrogel, a tabletop centrifuge (5424R, Eppendorf, Hamburg, Germany) was used. For this purpose, 50 μl of the hydrogel were formed by mixing the peptide-starPEG-conjugates and 14-kDa-heparin in phosphate buffer (1×PBS, pH 7.4) to a final concentration of 5 mM (once 2.5 mM for KA7-starPEG). The mixture was incubated in 0.2 ml reaction vessels overnight. The deformation of the hydrogel surface was determined in reference to the 45° centrifuge rotor and the penetration of 275 μm metal beads in dependence on the force that has to be produced by the centrifuge. All experiments were repeated three times.
Hereby FIGS. 5A and B show a deformation of the surface of the 50 μl hydrogel in a 0.2 ml reaction tube, more specifically FIG. 5A below the speed required for deforming the surface, and FIG. 5B at the speed required for deforming the surface. FIG. 5C is a schematic representation of the penetration of a small spheres through 50 μl hydrogel in a 0.2 ml reaction tube depending on the force exerted by the 45° centrifuge.
The hydrogels were formed by mixing peptide-starPEG-conjugate and 14-kDa-heparin at 5 mM final concentration in 50 μl phosphate buffer (1×PBS). The analysis was performed by centrifuging the hydrogels in a 45° tabletop centrifuge with 275 μm metal beads on the gel surface. The deformation of the surface and the penetration of the spheres were recorded in dependence on the exerted force.

[3] = Erosion experiment with TAMRA-marked 14-kDa-heparin; settings: 5 mM conjugate + 5 mM TAMRA-heparin, cell culture medium with 2% FBS, 37° C.
Procedure: Further, an erosion experiment was conducted. For this purpose peptide-starPEG-conjugates were respectively mixed with TAMRA-marked 14-kDa-heparin. For the erosion experiment the TAMRA-marked 14-kDa-heparin had to be synthesized beforehand. Hereby 14-kDa-heparin was marked with 5-(and-6)-carboxytetramethylrhodamin (TAMRA, Invitrogen) by using the 1-ethyl-3-(3-dimethylaminopropyl)carbodiimide/N-hydroxysulfosuccinimide-(EDAC/sNHS)-chemistry. Heparin, TAMRA, EDAC, sNHS and Na2CO3 were mixed at a ratio of 1:2:5:4:20 in water and incubated overnight. Thereafter the mixture was dialyzed for two days against 10 liters of water in a dialysis membrane with an exclusion limit of 8 kDa with constant exchange of water. The dialyzed product was filtered through a 0.22 μm polyvinylidene fluoride filter (PVDF-filter) and freeze-dried to a red product.
Subsequently the peptide-starPEG-conjugates were respectively mixed with the TAMRA-labelled 14-kDa-heaprin in 50 μl cell culture medium to a final concentration of 5 mM. […] The fluorescence was measured at defined time points in the supernatant by using a plate reading device (BECKMAN COULTER […] Detection platform, BECKAMN COULTER, Brea, Calif., USA) and black 96-well-plates with clear bottom.
Both peptides shoed without heparin a random coiled structure in Milli-Q-water. […] The fluorescence was measured in 200 μl of 1 ml supernatant. […]

[4] = Hydrogel formation in different solvents; settings: 5 mM conjugate + 5 mM 14-kDa-heparin
Procedure: Three respective different cases were tested in the hydrogel-formation stability test. […] The hydrogels were formed by mixing the final concentrations of respectively 5 mM peptide-starPEG-conjugate and 5 mM 14-kDa-heparin in 50 μl physiological phosphate buffer solution (1×PBS), Milli-Q-water or cell culture medium with 2% fetal bovine serum (FBS). The stability of the hydrogels was tested with the same solvent in which it was formed in 200 μl supernatant. The hydrogels were incubated at room temperature (24° C.), the supernatants were changed every day for at least three days in a row and the result after at least 3 days analyzed.

Sequence: CWGGKAKAKAKAKA [KA5]
- Stability of hydrogel against supernatant ([1]; supernatant 1M HCl): only destroyed by 1 M HCl after more than one week incubation; also recorded: Stable; hydrogel was
- Stability of hydrogel against supernatant ([1]; supernatant 1M NaOH): Stable
- Stability of hydrogel against supernatant ([1]; supernatant 1xPBS, 5 mM conjugate + 5 mM heparin gel): Stable
- Stability of hydrogel against supernatant ([1]; supernatant Cell culture medium with 2% FBS): Stable
- Stability of hydrogel against supernatant ([1]; supernatant DMSO): Stable
- Stability of hydrogel against supernatant ([1]; supernatant Ethanol): Stable
- Stability of hydrogel against supernatant ([1]; supernatant Saturated NaCl solution): Stable
- Stability of hydrogel against supernatant ([1]; supernatant Water): Stable
- Deformation speed ([2]; 50 μl 1×PBS, 45° centrifuge): 11223 +/- 4768 m/s^2
- Penetration speed ([2]; 275 μm metal beads): 21209 +/- 2188 m/s^2
- Heparin released from the hydrogel (erosion) [3]: more erosion
- Hydrogel formation in solvent ([4]; Cell culture medium with 2% FBS): formed
- Hydrogel formation in solvent ([4]; PBS, 50 μl, result after at least 3 days): formed
- Hydrogel formation in solvent ([4]; water (Milli-Q)): Formed
